Assays:
[1] = molecular target: T1, TNFα (Homo sapiens, UniProt P01375); experiment: SPR on Biacore 4000 against immobilised soluble TNFα; assay type: binding; conditions: up to 100 μM
Experimental: In another experiment, BIO8898 was tested against the immobilised soluble form of CD40L and the soluble form of TNFα by SPR on a Biacore 4000 machine.

[2] = molecular target: T2, Mouse TNFα (Mus musculus, UniProt P06804); experiment: BIAcore antibody binding with mouse TNFα +/- compound
T2 construct: made in house
T2 sequence (P06804 80-235 limits assumed): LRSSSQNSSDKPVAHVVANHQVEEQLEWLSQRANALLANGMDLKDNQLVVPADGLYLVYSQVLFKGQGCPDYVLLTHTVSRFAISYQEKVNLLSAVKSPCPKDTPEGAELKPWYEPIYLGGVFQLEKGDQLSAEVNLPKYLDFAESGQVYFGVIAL
Experimental: (§1) Surface plasmon resonance was performed at 25° C. using a BIAcore T200 (GE Healthcare). Anti-Mouse Fc (Jackson 115-006-071) was immobilised on a […] Sensor Chip (GE Healthcare) via amine coupling chemistry to a capture level of 6000 response units. HBS-EP buffer (10 mM HEPES pH 7.4, 0.15 M NaCl, 3 mM EDTA, 0.05% (v/v) surfactant P20—GE Healthcare)+1% DMSO was used as the running buffer.
(§2) The surface was regenerated at a flow-rate of 10 μl/min by a 60 s injection of 40 mM HCl×2 and a 30 s 5 mM NaOH. Double referenced background subtracted binding curves were analysed using the T200 Evaluation software (version 1.0) following standard procedures. Kinetic parameters were determined from the fitting algorithm.

[3] = molecular target: human TNFα complexed with compound (15) (Homo sapiens, UniProt P01375); experiment: Size exclusion chromatography of Fab with human TNFα complexed with compound (15); assay type: binding; conditions: mouse Fab fragments
Sequence of human TNFα complexed with compound (15) (P01375 77-233 limits assumed, one chain of several): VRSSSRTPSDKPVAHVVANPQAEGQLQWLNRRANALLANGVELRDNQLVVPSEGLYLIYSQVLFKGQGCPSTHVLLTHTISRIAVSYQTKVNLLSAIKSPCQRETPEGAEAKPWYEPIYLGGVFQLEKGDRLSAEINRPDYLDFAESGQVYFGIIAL

[4] = molecular target: T1, TNFα; experiment: BIAcore antibody binding with human TNFα +/- compound; design: made in house
Experimental: as §1, §2

T1 sequence (P01375 77-233 limits assumed): as the sequence (P01375 77-233 limits assumed, one chain of several) above

Row | Molecule | binding to TNFα [1] | Kd ([2]; Mouse TNFα + compound (15)) [nM] | ka ([2]; Mouse TNFα + compound (15)) [M⁻¹ s⁻¹] | kd ([2]; Mouse TNFα + compound (15)) [s⁻¹] | ka ([2]; Mouse TNFα + compound (39)) [M⁻¹ s⁻¹] | kd ([2]; Mouse TNFα + compound (39)) [s⁻¹] | Kd ([2]; Mouse TNFα apo) [nM] | ka ([2]; Mouse TNFα apo) [M⁻¹ s⁻¹] | kd ([2]; Mouse TNFα apo) [s⁻¹] | stoichiometry of Fab binding to trimer-compound complex [3] | ka ([4]; Human TNFα + compound (15)) [M⁻¹ s⁻¹] | kd ([4]; Human TNFα + compound (15)) [s⁻¹] | ka ([4]; Human TNFα + compound (39)) [M⁻¹ s⁻¹] | kd ([4]; Human TNFα + compound (39)) [s⁻¹] | ka ([4]; Human TNFα apo) [M⁻¹ s⁻¹] | kd ([4]; Human TNFα apo) [s⁻¹]
1 | O=C(NCc1cccc(-c2ccccc2)c1)c1cc(-c2cc(C(=O)NC(C(=O)O)C3CCCCC3)nc(C(=O)N3CCCC3CN3CCCC3)c2)cc(C(=O)N2CCCC2CN2CCCC2)n1 (stereo not shown) [BIO8898] | no binding was detected |  |  |  |  |  |  |  |  |  |  |  |  |  |  | 
2 | CA185_01979: conformation-selective antibody, light chain SEQ ID NO: 26, heavy chain SEQ ID NO: 27 (antibody, 1979 HC mIgG1 full; 1979 LC Kappa full) heavy: EVHLVESGPGLVKPSQSLSLTCSVTGYSITNSYWDWIRKFPGNKMEWMGYINYSGSTGYNPSLKSRISISRDTSNNQFFLQLNSITTEDTATYYCARGTYGYNAYHFDYWGRGVMVTVSSAKTTPPSVYPLAPGSAAQTNSMVTLGCLVKGYFPEPVTVTWNSGSLSSGVHTFPAVLQSDLYTLSSSVTVPSSTWPSETVTCNVAHPASSTKVDKKIVPRDCGCKPCICTVPEVSSVFIFPPKPKDVLTITLTPKVTCVVVDISKDDPEVQFSWFVDDVEVHTAQTQPREEQFNSTFRSVSELPIMHQDWLNGKEFKCRVNSAAFPAPIEKTISKTKGRPKAPQVYTIPPPKEQMAKDKVSLTCMITDFFPEDITVEWQWNGQPAENYKNTQPIMDTDGSYFVYSKLNVQKSNWEAGNTFTCSVLHEGLHNHHTEKSLSHSPGK light: DIQMTQSPASLSASLEEIVTITCQASQDIGNWLSWYQQKPGKSPHLLIYGTTSLADGVPSRFSGSRSGTQYSLKISGLQVADIGIYVCLQAYSTPFTFGSGTKLEIKRTDAAPTVSIFPPSSEQLTSGGASVVCFLNNFYPKDINVKWKIDGSERQNGVLNSWTDQDSKDSTYSMSSTLTLTKDEYERHNSYTCEATHKTSTSPIVKSFNRNEC |  | 0.38 | 160000 | 6.3e-05 | 190000 | 3.5e-05 | 27 | 72000 | 0.002 | 1 Fab:1 TNFα trimer | 470000 | 1.6e-05 | 570000 | 3.3e-05 | 110000 | 0.00071

From patent US11674967B2, “Method of identifying potential inhibitors of APO TNFα trimers” (UCB BIOPHARMA SRL, priority 2015, dated 2023)
